Measurements from paper PMC2212760 (The Journal of Experimental Medicine, 2005).

Assays:
FPRL2 [1] = biological target: T1, FPRL2 (Homo sapiens, UniProt P25089); test: aequorin-based functional assay on FPRL2-expressing CHO-K1 cells; conditions: aequorin assay (FMLP, SHAAG: aequorin and cAMP assays)
T1 sequence (P25089 1-353): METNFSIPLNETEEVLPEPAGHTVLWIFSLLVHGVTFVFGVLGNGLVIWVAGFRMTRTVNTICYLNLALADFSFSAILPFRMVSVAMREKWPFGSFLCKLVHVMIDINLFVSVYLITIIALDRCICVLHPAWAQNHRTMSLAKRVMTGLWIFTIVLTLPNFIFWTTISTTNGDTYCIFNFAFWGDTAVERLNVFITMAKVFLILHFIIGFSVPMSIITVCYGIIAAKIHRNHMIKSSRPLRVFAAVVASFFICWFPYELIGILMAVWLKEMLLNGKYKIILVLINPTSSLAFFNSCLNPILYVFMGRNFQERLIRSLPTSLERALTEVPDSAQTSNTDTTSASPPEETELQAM

FPRL2 [2] = biological target: T1, FPRL2; conditions: not depicted

activity on FPRL2 (FPRL2 [1]): totally inactive
activity in FPRL2 binding assay (FPRL2 [2]): totally inactive
Sequence: NSLFGSVETWPWQVL [F2L[7–21]]
